Results reported in PMC10985028 (Acta Pharmaceutica Sinica. B, 2024).

Target: T1, HA-tagged USP48 (human, UniProt Q86UV5 1-1035)
T1 sequence (looked up): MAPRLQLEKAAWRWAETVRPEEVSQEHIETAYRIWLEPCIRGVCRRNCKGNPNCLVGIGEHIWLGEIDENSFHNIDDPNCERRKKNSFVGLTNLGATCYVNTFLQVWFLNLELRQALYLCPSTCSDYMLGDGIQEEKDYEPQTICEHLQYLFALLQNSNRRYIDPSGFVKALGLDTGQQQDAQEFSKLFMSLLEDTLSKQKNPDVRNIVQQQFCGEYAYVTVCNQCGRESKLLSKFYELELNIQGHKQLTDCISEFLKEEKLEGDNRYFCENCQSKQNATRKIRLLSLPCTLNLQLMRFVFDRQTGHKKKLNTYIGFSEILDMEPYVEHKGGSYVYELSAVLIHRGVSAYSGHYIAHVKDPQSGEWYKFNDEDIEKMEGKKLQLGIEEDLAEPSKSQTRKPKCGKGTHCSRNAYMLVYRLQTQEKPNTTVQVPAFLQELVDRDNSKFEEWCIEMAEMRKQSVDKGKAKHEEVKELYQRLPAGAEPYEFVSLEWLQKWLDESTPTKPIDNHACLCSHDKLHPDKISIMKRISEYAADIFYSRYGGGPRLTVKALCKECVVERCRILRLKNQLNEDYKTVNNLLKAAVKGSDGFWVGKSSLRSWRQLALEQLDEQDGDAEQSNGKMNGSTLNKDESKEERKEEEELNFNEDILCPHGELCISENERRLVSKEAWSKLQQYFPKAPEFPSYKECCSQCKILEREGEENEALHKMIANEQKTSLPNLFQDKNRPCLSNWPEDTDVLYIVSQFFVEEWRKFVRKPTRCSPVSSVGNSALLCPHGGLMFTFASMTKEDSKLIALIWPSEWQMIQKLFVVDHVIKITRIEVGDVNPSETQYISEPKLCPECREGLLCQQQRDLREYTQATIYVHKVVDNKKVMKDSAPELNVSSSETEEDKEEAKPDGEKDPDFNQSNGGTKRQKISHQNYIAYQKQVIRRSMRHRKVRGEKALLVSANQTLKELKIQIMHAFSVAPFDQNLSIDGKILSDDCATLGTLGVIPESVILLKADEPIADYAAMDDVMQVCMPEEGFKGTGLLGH
Assay: pull-down

binding result: binds
B1: GST-HMGA2 (natural protein, human, UniProt P52926 1-109, looked up)
chain: MSARGEGAGQPSTSAQGQPAAPAPQKRGRGRPRKQQQEPTGEPSPKRPRGRPKGSKNKSPSKAAQKKAEATGEKRPRGRPRKWPQQVVQKKPAQEETEETSSQESAEED
